Paper PMC6927032

Target: TglB (Pseudomonas syringae)
Test: fluorescence polarisation

| Substance | IC50 |
| --- | --- |
| TglA D40A (peptide) | 15 µM |
| TglA E42A (peptide) | 10.5 µM |
| TglA E45A (peptide) | > 300 µM |
| TglA F49A (peptide) | 4.2 µM |
| TglA I41A (peptide) | 32 µM |
| TglA I44A (peptide) | 24 µM |
| TglA K47A (peptide) | 255 µM |
| TglA S46A (peptide) | 11 µM |
| TglA V43A (peptide) | 98 µM |
| TglA V48A (peptide) | 113 µM |
| WT TglA (peptide) | 8 µM |
